We go through 1 protein from publication PMC9554752, “Complement membrane attack complex is an immunometabolic regulator of NLRP3 activation and IL-18 secretion in human macrophages” (Frontiers in Immunology, 2022).

The data set deals with the molecule itself. The data set is described as follows: Western blot of dimer and monomer bands after SDS-PAGE; hMDMs incubated with MAC (+/- anti-C7) or 5 uM MitoPQ for 3 hours; cells treated with 80 mM MMTS for 10 min at RT before lysis; % dimer = SI dimer/(SI dimer + SI monomer) x 100, expressed relative to untreated control.

B1: mitochondrial peroxiredoxin 3 (natural protein, human (endogenous in hMDMs), UniProt P30048 62-256, looked up)
chain: APAVTQHAPYFKGTAVVNGEFKDLSLDDFKGKYLVLFFYPLDFTFVCPTEIVAFSDKANEFHDVNCEVVAVSVDSHFSHLAWINTPRKNGGLGHMNIALLSDLTKQISRDYGVLLEGSGLALRGLFIIDPNGVIKHLSVNDLPVGRSVEETLRLVKAFQYVETHGEVCPANWTPDSPTIKPSPAASKEYFQKVNQ
notes: peroxiredoxin 3 (Prx3), mitochondrial, endogenous in human monocyte-derived macrophages; detected with rabbit anti-Prx3 (Abcam Ab73349); Cells were incubated in 80 mM methylmethanethiosulfonate (MMTS) for 10 min before lysis; also called Prx3; Prx; source: endogenous, hMDM (human monocyte-derived macrophage) lysate
As usually defined, the stoichiometry N is a count of units in the complex or per binding partner. On to B1, for which the “stoichiometry N” value is 2.
